System: NC(=O)c1ccc[n+]([C@@H]2O[C@H](COP(=O)([O-])OP(=O)(O)OC[C@H]3O[C@@H](n4cnc5c(N)ncnc54)[C@H](O)[C@@H]3O)[C@@H](O)[C@H]2O)c1
Assay: NAD-dependent deacetylation of di-acetylated H3 peptide by recombinant yeast Sir2p (HPLC)
Type: biochemical
Details: other: reaction about 50% of maximal level; pH 9.0
Description: The typical reaction of Sir2 deacetylase activity was performed in 50 μl of buffer containing 50 mM Tris-HCl [pH 9.0], 4 mM MgCl2, 0.2 mM DTT, variable concentration of cold nicotinamide adenine dinucleotide (NAD) or NAD derivatives (SIGMA®, MO), 5-10 μg of the purified recombinant Sir2 proteins, and 10 μg of the histone H3 N-terminal tail peptide (amino acid 1-20) di-acetylated at positions 9 and 14 (Upstate Biotechnology™, NY). […] To detect the ADP-ribosylation activity, 8 μCi of NAD 5′-[α-^32P]triphosphate (˜1000 Ci/mmol, Amersham Pharmacia Biotech™, NJ) was added to the same reaction containing 1 μM cold NAD. Histone H3 protein (4 μg) (Roche Molecular Biochemicals™, IN) were used for this assay. All reaction mixtures were incubated at room temperature for 1 hr. Trichostatin A and coumermycin A1 (SIGMA™) were prepared in dimethylsulfoxide (DMSO, SIGMA®), and 5 μl of solvent or inhibitor was added to the reactions prior to adding Sir2 proteins.
After the incubation, the products were precipitated at −20° C. overnight by adding 50 μl of distilled water and 25 μl of 100% trichloroacetic acid (TCA) solution. […] The chromatograms at the absorbance of 210 nm were digitally recorded and analyzed by Hewlett Packard ChemStation™ system (version A.06.03 [509]). […] PTH amino acid chromatograms were recorded and analyzed by the ABI Model 610A2.1 data integration/analysis system. […]

Sir2p (Saccharomyces cerevisiae S288C)
Km: 100 µM

Source: US8642284B1, “Methods for identifying agents that alter NAD-dependent deacetylation activity of a SIR2 protein” (Massachusetts Institute of Technology, priority 1999, dated 2014)
